How the values were obtained:
[1] = Preparation of single peptide injection preparations using arginine solution (Example 2); type: physicochemical; settings: for Whether injection preparation could be prepared (in words): 5 mg to 20 mg peptide in 1 ml injection solvent containing arginine; for Peptide concentration at which injection preparation could be prepared, Example 2 (Arg): 40 mg L-arginine in 1 ml injection solvent; for pH of injection preparation, Example 2 (Arg): injection solvent containing arginine
Description: 40 mg of L-arginine was dissolved in 1 ml of an injection solvent to obtain an injection solvent containing arginine. In order to prepare formulations of each peptide that was not dissolved in an injection solvent in Comparative Example 1, Peptides 1, 2, 4, 7, and 10 were separately added to 1 ml of injection solvents containing arginine.
In the case of Peptide 1, it was confirmed that the injection preparation could be obtained with the addition of 6 mg of peptide at the maximum. All the obtained injection preparations had pH levels within adequate range for injection (Table 2).

[2] = Combination peptide injection preparation using sodium carbonate/arginine solution (Example 6); type: physicochemical; parameters: key to Dissolution on successive addition, Example 6 (Na2CO3/Arg) (2 mg each) / Dissolution of further 2 mg of Peptide 2, Example 6 (Na2CO3/Arg): ◯: Dissolved; X: White Turbid; settings: for Dissolution on successive addition, Example 6 (Na2CO3/Arg) (2 mg each): 2 mg each peptide added one after another to 1 ml sodium carbonate/arginine solvent
Description: (§1) In order to prepare an injection preparation containing combination of the peptides shown in Table 1, the 10 types of peptides shown in Table 1 were added in an amount of 2 mg each to 1 ml of the injection solvent containing sodium carbonate and arginine as used in Example 3. The addition of each peptide was conducted in the same manner as in Example 4.

[3] = Preparation of single peptide injection preparations using sodium carbonate solution (Example 1); type: physicochemical; settings: for Whether injection preparation could be prepared (in words): 5 mg to 20 mg peptide in 1 ml injection solvent containing sodium carbonate; for Peptide concentration at which injection preparation could be prepared, Example 1 (Na2CO3): 41 mg sodium carbonate decahydrate in 1 ml injection solvent; for pH of injection preparation, Example 1 (Na2CO3): injection solvent containing sodium carbonate
Description: 41 mg of sodium carbonate decahydrate (Na2CO3.10H2O) was dissolved in 1 ml of an injection solvent to obtain an injection solvent containing sodium carbonate. In order to prepare formulations of the each peptide that was not dissolved in an injection solvent in Comparative Example 1, Peptides 1, 2, 4, 7, and 10 were separately added to 1 ml of injection solvents containing sodium carbonate.
In the case of Peptide 1, it was confirmed that the injection preparation could be obtained with the addition of 9 mg of peptide at the maximum. All the obtained injection preparations had pH levels within adequate range for injection (Table 2).

[4] = Stability of lyophilized formulation, peptide content in the vial by HPLC (Example 7); type: physicochemical; settings: 25 degrees C., humidity 60%, relative to comparative solution peak area = 100%
Description: 107.7 g of L-arginine and 110.4 g of sodium carbonate hydrate were dissolved in 5,500 ml of an injection solvent. Peptide 1, Peptide 2, Peptide 3, and Peptide 4 were dissolved therein in amounts of 6.2 g, 7.5 g, 8.7 g, and 8.0 g, respectively. Thereafter, the total amount of the solution was adjusted to 7,000 ml with the addition of an injection solvent, and a combination peptide solution was obtained. […] Following lyophilization, the vial was fully stoppered and the aluminum cap seaming was conducted. Thus, a lyophilized formulation was produced.
Further, the results shown above were subjected to regression analysis, so as to predict stability 24 months later.

[5] = Preparation of single peptide injection preparations using injection solvent (Comparative Example 1); settings: for Whether injection preparation could be prepared (in words): 2 mg to 20 mg peptide in 1 ml injection solvent; for Peptide concentration at which injection preparation could be prepared, Comparative Example 1 (injection solvent): injection solvent (water), room temperature, class symbol
Description: Pharmaceutical water defined by the Japanese Pharmacopoeia was used as an injection solvent.
In order to prepare formulations containing one of the peptides shown in Table 1, each of the peptides shown in Table 1 were added to 1 ml of an injection solvent. The resultants were agitated at room temperature so as to dissolve the entire amounts of the peptides added, and thereby colorless and clear solutions of each peptide were obtained. Thereafter, the peptide solutions were sterilized via filtration (with the use of a 0.22-μm filter) to obtain injection preparations.
The amounts of peptides added varied within the range of 2 mg to 20 mg, and injection preparations were prepared at each concentration. […] For these peptides, peptide concentrations that enable preparation of injection preparations were investigated.

[6] = Combination peptide injection preparation using arginine solution (Example 4); type: physicochemical; parameters: key to Dissolution on successive addition, Example 4-1 (Arg) (1 mg each) / Dissolution on successive addition, Example 4-2 (Arg) (2 mg each): ◯: Dissolved; X: White Turbid; settings: for Dissolution on successive addition, Example 4-1 (Arg) (1 mg each): 1 mg each peptide added one after another to 1 ml arginine solvent; for Dissolution on successive addition, Example 4-2 (Arg) (2 mg each): 2 mg each peptide added one after another to 1 ml arginine solvent
Description: In order to prepare an injection preparation containing combination of the peptides shown in Table 1, the 10 types of peptides shown in Table 1 were added in an amount of 1 mg each to 1 ml of the injection solvent containing arginine as used in Example 2. The entire amount of one peptide was dissolved upon addition thereof to obtain a colorless and clear solution, and another peptide was then added thereto.
Subsequently, preparation of another injection preparation containing combination of the peptides was attempted in the same manner as described above, except that the amount of each peptide added was changed to 2 mg. […] Thus, no other peptides were added thereafter.

[7] = Combination peptide injection preparation using sodium carbonate solution (Example 5); type: physicochemical; parameters: key to Dissolution on successive addition, Example 5 (Na2CO3) (2 mg each) / Dissolution of further 2 mg of Peptide 2, Example 5 (Na2CO3): ◯: Dissolved; X: White Turbid; settings: for Dissolution on successive addition, Example 5 (Na2CO3) (2 mg each): 2 mg each peptide added one after another to 1 ml sodium carbonate solvent
Description: as §1, with “carbonate” for “carbonate and arginine”, “1.” for “3.”

[8] = Preparation of injection preparations using sodium carbonate/arginine solution (Example 3); type: physicochemical; settings: for Peptide concentration at which injection preparation could be prepared, Example 3 (Na2CO3/Arg): 41 mg sodium carbonate decahydrate and 40 mg L-arginine in 1 ml injection solvent; for pH of injection preparation, Example 3 (Na2CO3/Arg): injection solvent containing sodium carbonate and arginine
Description: 41 mg of sodium carbonate decahydrate and 40 mg of L-arginine were dissolved in 1 ml of an injection solvent to obtain an injection solvent containing sodium carbonate and arginine.
In the case of Peptide 3, it was confirmed that the injection preparation could be obtained with the addition of 15 mg of peptide at the maximum. All the obtained injection preparations had pH levels within adequate range for injection (Table 2).

[9] = further 2 mg added after all 10 peptides (2 mg each) had dissolved

Sequence | Whether injection preparation could be prepared (in words) [1] | Peptide concentration at which injection preparation could be prepared, Example 2 (Arg) ([1]; class symbol) | pH of injection preparation, Example 2 (Arg) [1] | Dissolution on successive addition, Example 6 (Na2CO3/Arg) (2 mg each) [2] | Whether injection preparation could be prepared (in words) [3] | Peptide concentration at which injection preparation could be prepared, Example 1 (Na2CO3) ([3]; class symbol) | pH of injection preparation, Example 1 (Na2CO3) [3] | Peptide content in the vial, 0 months [4] [%] | Peptide content in the vial, 1 month [4] [%] | Peptide content in the vial, 3 months [4] [%] | Peptide content in the vial, 6 months [4] [%] | Whether injection preparation could be prepared (in words) [5] | Peptide concentration at which injection preparation could be prepared, Comparative Example 1 (injection solvent) [5] | Dissolution on successive addition, Example 4-1 (Arg) (1 mg each) [6] | Dissolution on successive addition, Example 4-2 (Arg) (2 mg each) [6] | Dissolution on successive addition, Example 5 (Na2CO3) (2 mg each) [7] | Peptide concentration at which injection preparation could be prepared, Example 3 (Na2CO3/Arg) ([8]; class symbol) | pH of injection preparation, Example 3 (Na2CO3/Arg) [8] | other results
EYYELFVNI (T cell epitope) [Peptide 2] | possible to prepare the injection preparations regardless of the amounts of peptides added | ⊚ (20 mg/ml or more) | 9.03 | ◯ | possible to prepare the injection preparations regardless of the amounts of peptides added | ⊚ (20 mg/ml or more) | 8.90 | 101.8 | 99.5 | 101.3 | 101.4 | not possible to prepare the injection preparations regardless of the amounts of peptides added | X (0.08 mg/ml or less) | ◯ | ◯ | ◯ | ⊚ (20 mg/ml or more) | 9.67 | Dissolution of further 2 mg of Peptide 2, Example 6 (Na2CO3/Arg) [2, 9]: ◯; Dissolution of further 2 mg (in words), Example 6 ([2]; further 2 mg after all 10 peptides (2 mg each), sodium carbonate/arginine solvent): colorless and clear solution was obtained; Dissolution of further 2 mg of Peptide 2, Example 5 (Na2CO3) [7, 9]: X; Dissolution of further 2 mg (in words), Example 5 ([7]; further 2 mg after all 10 peptides (2 mg each), sodium carbonate solvent): white turbidity
IYTWIEDHF (T cell epitope) [Peptide 4] | possible to prepare the injection preparations regardless of the amounts of peptides added | ⊚ (20 mg/ml or more) | 8.95 | ◯ | possible to prepare the injection preparations regardless of the amounts of peptides added | ⊚ (20 mg/ml or more) | 8.88 | 101.2 | 99.6 | 99.4 | 99.5 | not possible to prepare the injection preparations regardless of the amounts of peptides added | X (0.08 mg/ml or less) | ◯ | – | ◯ | ⊚ (20 mg/ml or more) | 9.69 | –
SYGVLLWEI (T cell epitope) [Peptide 1] | – | – | (10.17) | ◯ | – | – | (9.85) | 101.0 | 98.7 | 98.9 | 98.6 | not possible to prepare the injection preparations regardless of the amounts of peptides added | X (0.08 mg/ml or less) | ◯ | ◯ | ◯ | – | (10.41) | Peptide concentration at which injection preparation could be prepared, Example 2 (Arg) ([1]; numeric): 6 mg/mL; Maximum amount of peptide added that gave an injection preparation ([1]; in 1 ml injection solvent containing arginine): 6 mg; Peptide concentration at which injection preparation could be prepared, Example 1 (Na2CO3) ([3]; numeric): 9 mg/mL; Maximum amount of peptide added that gave an injection preparation ([3]; in 1 ml injection solvent containing sodium carbonate): 9 mg; Peptide concentration at which injection preparation could be prepared, Example 3 (Na2CO3/Arg) ([8]; numeric): 10 mg/mL

Reference: patent US20150359864A1, “PHARMACEUTICAL COMPOSITION CONTAINING PEPTIDES” (ONCOTHERAPY SCIENCE, INC., priority 2012, published 2015)
